In patent publication US7282356B2, “D-aminoacylase mutants” (Daicel Chemical Industries, Ltd., priority 2002, dated 2007):

Key:
[1] = Second generation mutants: activity of producing D-tryptophan (TNBS Abs. 420 / OD600); assay type: cell-based, E. coli JM109; settings: 5% N-acetyl-DL-tryptophan and 2% N-acetyl-L-tryptophan
Experimental: Three types of the E. coli transformant libraries obtained in Example 11 were inoculated on an LB agar plate. Each colony grown on the plate was inoculated with a toothpick to a well of a microtiter plate which contained 150 μl of LB culture medium containing 50 μg/ml ampicillin and 0.02 mM IPTG, and then the microtiter plate was covered with Breathable Sealing Membrane (Nalgene). The microtiter plate was incubated at 37° C. for 18 hours while being shaken. 10 μl of the culture medium solution was added to the reaction solution containing 300 mM Tris-hydrochloride buffer (pH 8.0), 0.1% cetylpyridinium bromide, 5% N-acetyl-DL-tryptophan, 1% N-acetyl-L-tryptophan, and distilled water in the wells of a microtiter plate. The plate was incubated at 25° C. for 1 hour while being shaken. Then, D-tryptophan produced from N-acetyl-D-tryptophan was quantified by colorimetry according to the TNBS method. […]
The amino acid substitution in each mutant, and the effect of the amino acid substitution, which was estimated as an activity of producing D-tryptophan in the presence of 5% N-acetyl-DL-tryptophan and 2% N-acetyl-L-tryptophan, are shown in Table 2. The “activity”, as used herein, refers to “a colorimetric value of the reaction solution determined at the end of reaction by the TNBS method (Abs. 420)/the degree of bacterial growth (OD600)”.

[2] = Hydrolysis of 15% N-acetyl-DL-tryptophan by E. coli cells; assay type: cell-based, E. coli HB101; settings: 25° C., 24 hours
Experimental: 3AD-0013(M347Q/R374H) and 3AD-0089(A154V/M347A/R374P) are mutants with two amino acid substitutions and with three amino acid substitutions of the third generation mutants obtained in Example 17, respectively. Cells of E. coli HB101 strain transformed with plasmids expressing the two types of mutants were each inoculated to a liquid LB medium, and cultured at 30° C. overnight. Then, the E. coli cells were inoculated to a culture medium (2x YT) and incubated at 30° C. for 18 hours. The cells of E. coli were harvested, and used to hydrolyze N-acetyl-D-tryptophan.
10 ml of a reaction solution containing E. coli cells prepared from 5 mL of culture medium solution, 300 mM Tris-hydrochloride buffer (pH 8.0), and 15% N-acetyl-DL-tryptophan was incubated at 25° C. for 24 hours while being stirred. E. coli HB101 strain containing the wild-type pSL-ADD6 was used as a control. While the yield was about 15% with the wild type, the yields were about 30% and about 80% with the mutant 3AD-0013 having two amino acid substitutions and the mutant 3AD-0089 having three amino acid substitutions, respectively. Thus, the third generation mutants obtained in […] were confirmed to have higher processability in the hydrolysis of higher concentrations of N-acetyl-DL-tryptophan.

[3] = Production of D-tryptophan from N-acetyl-DL-tryptophan using cell-free extract (10 U/mL); assay type: biochemical; settings: for Yield of D-Trp: 10 U/mL reaction solution, 30° C., 24 hours
Experimental: Wild-type or mutant D-aminoacylase extract can be obtained by, for example, recovering microbial cells by filtration and centrifugation, suspending them in a buffer, and disrupting them using a Bead-Beater (BIOSPEC PRODUCT). Reaction solutions containing 10 U/mL enzyme thus obtained 300 mM Tris-hydrochloride buffer (pH 8.0), and 12%, 15%, 17%, 20% or 22% N-acetyl-DL-tryptophan, are incubated at 30° C. for 24 hours while being shaken. Thus, D-tryptophan can be produced in 80% or higher yield from 12%, 15%, or 17% substrate, or in 50% or higher yield from 20% or 22% substrate.
0.5 ml of a reaction solution containing 5 units of cell-free extract obtained in the step of enzyme purification described in Example 19 or Example 23, 12%, 15%, 17%, 20%, or 22% N-acetyl-DL-tryptophan, and 300 mM Tris-hydrochloride buffer (pH 8.0) was incubated at 30° C. for 24 hours while being stirred. While with the wild type the yield of D-tryptophan was lower than 10% at any substrate concentration, with the mutant 3AD-0089 the yield of D-tryptophan was 80% or higher at substrate concentrations of up to 17%. Furthermore, the mutant was confirmed to enable the production of D-tryptophan in 66% yield in the presence of 20% substrate, or in 58% yield in the presence of 22% substrate.

[4] = Production of D-tryptophan from high concentrations of N-acetyl-DL-tryptophan using culture medium of recombinant E. coli; assay type: cell-based, E. coli HB101
Experimental: Cells of E. coli HB101 strain were transformed with the plasmid pSL-AD10 expressing the mutant D-aminoacylase 3AD-0089 (containing the amino acid substitution of A154V/M347A/R374F) obtained in Example 18. The transformant was inoculated to a liquid LB medium, and cultured at 30° C. overnight. Then, the E. coli was inoculated to a culture medium (2x YT) and incubated at 30° C. for 18 hours. N-acetyl-D-tryptophan was hydrolyzed using the culture medium solution of the E. coli.
400 mL of a reaction solution containing the culture medium solution of the E. coli and 15% N-acetyl-DL-tryptophan was incubated at 30° C. for 24 hours while being stirred. E. coli HB101 strain containing the wild type […] was used as a control. While with the wild type the yield was about 4%, with the recombinant E. coli containing pSL-AD10 the yield was 90% or higher (FIG. 1).
The hydrolysis was carried out in the presence of 20% N-acetyl-DL-tryptophan by the same method as described in Example 26. The yield was 90% or higher with the recombinant E. coli having the plasmid pSL-AD10 that contains the DNA encoding the mutant D-aminoacylase 3AD-0089 (containing the amino acid substitution of A154V/M347A/R374F). The optical purity of tryptophan produced was analyzed by the procedure described below. […] The elution was detected with the optical density at 280 nm. […]

B1: wild-type: D-aminoacylase derived from Alcaligenes denitrificans subsp. xylosoxydans MI-4, SEQ ID NO: 1 (protein)
chain: MSQSDSQPFDLLLAGGTLIDGSNTPGRRADLGVRGDRIAAIGDLSDAAAHTRVDVSGLVVAPGFIDSHTHDDNYLLRRRDMTPKISQGVTTVVTGNCGISLAPLAHANPPAPLDLLDEGGSYRFERFADYLDALRATPAAVNAACMVGHSTLRAAVMPDLQRAATDEEIAAMRDLAEEAMASGAIGISTGAFYPPAARATTEEIIEVCRPLSAHGGIYATHMRDEGEHIVAALEETFRIGRELDVPVVISHHKVMGQPNFGRSRETLPLIEAAMARQDVSLDAYPYVAGSTMLKQDRVLLAGRTIITWCKPFPELSGRDLDEVAAERGKSKYDVVPELQPAGAIYFMMDEPDVQRILAFGPTMIGSDGLPHDERPHPRLWGTFPRVLGHYARDLGLFPLETAVWKMTGLTAARFGLAGRGQLQAGYFADLVVFDPATVADTATFEHPTERAAGIHSVYVNGAPVWQEQAFTGQHAGRVLARTAA
modifications: Alcaligenes denitrificans subsp. xylosoxydans MI-4
With B1 the “Activity of producing D-tryptophan” value [1] was 2.58, the yield [2] was “about 15%” and the “Yield of D-Trp” value ([3]; 12% N-Ac-DL-Trp) was 9.4%. The “Yield of D-Trp” value ([3]; 15% N-Ac-DL-Trp) was 3.5%, the “Yield of D-Trp” value ([3]; 17% N-Ac-DL-Trp) was 1.8% and the “Yield of D-Trp” value ([3]; 20% N-Ac-DL-Trp) was 0.5%. The “Yield of D-Trp” value ([3]; 22% N-Ac-DL-Trp) was 0.5%, the “yield of D-tryptophan” value ([3]; at any substrate concentration (12% to 22%)) was “lower than 10%” and the yield ([4]; 15% N-acetyl-DL-tryptophan, 30° C., 24 hours, culture medium solution) was “about 4%”. For the same molecule, the D-tryptophan produced ([4]; from 150 g/l N-acetyl-DL-tryptophan (75 g/l N-acetyl-D-tryptophan), FIG. 1) was “about 2.5 g/l”.
